This data set has as its target LARP4B (UniProt Q92615 1-738). The data set can be described thus: EMSA.

In general, Kd refers to the equilibrium constant for the complex coming apart.

Chain of LARP4B (Q92615 whole entry): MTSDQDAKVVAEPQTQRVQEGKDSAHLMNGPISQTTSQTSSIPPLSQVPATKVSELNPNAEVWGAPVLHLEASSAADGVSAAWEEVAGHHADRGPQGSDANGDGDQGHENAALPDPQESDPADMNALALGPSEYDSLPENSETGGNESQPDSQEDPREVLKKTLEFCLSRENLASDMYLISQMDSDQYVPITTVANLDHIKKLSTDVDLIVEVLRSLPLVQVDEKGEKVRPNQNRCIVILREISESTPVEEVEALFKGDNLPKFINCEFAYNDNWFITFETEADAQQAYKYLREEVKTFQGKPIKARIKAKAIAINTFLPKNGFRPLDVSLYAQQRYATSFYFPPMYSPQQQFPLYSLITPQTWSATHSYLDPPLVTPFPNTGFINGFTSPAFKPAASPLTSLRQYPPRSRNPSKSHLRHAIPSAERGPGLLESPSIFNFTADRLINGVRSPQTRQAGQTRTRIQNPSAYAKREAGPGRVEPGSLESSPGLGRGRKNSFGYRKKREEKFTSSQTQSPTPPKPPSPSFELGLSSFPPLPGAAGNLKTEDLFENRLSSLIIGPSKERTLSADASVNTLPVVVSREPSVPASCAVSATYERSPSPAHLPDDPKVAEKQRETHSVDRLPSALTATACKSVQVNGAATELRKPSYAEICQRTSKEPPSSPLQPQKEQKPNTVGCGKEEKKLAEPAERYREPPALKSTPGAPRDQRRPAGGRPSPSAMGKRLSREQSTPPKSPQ

B1: CKB del (ssRNA)
RNA: GUAGAGACUUCCGUCACGCUUGGUAGAGGA
As for B1, the binding result is listed as “no binding”.

B2: CKB (ssRNA)
RNA: GUAGAGACUUCCGUCACGCUUGGUAGAGUUUAUUUUUUUGA
Take B2: the Kd was about 200 nM.

Values taken from publication PMC4478348.
